US20130244255A1, “ANTIBODIES DIRECTED TO GPNMB AND USES THEREOF” (priority 2006, published 2013)

Columns and labels:
[1] = test system: Lymphoma or leukemia cell lines; assay: Clonogenic assay (methylcellulose) with 1.15.1-AE, lymphoma and leukemia panel; assay type: cell-based, human
Experimental: Lymphoma or leukemia cell lines were mixed with methylcellulose base media (R&D Systems, USA) and in various concentrations of unconjugated and Auristatin E-conjugated 1.15.1 antibody before plating onto 6-well tissue culture plates (Becton Dickinson, Franklin Lakes, N.J., USA). […] Plates were incubated at 37° C. and examined daily. On days 14-18, colonies on the plates were counted.

[2] = biological target: T1, GPNMB (Homo sapiens, UniProt Q14956); assay: Binning of antibodies (Luminex competitive binding)
T1 construct: we cloned the human CG56972 extracellular domain (ECD; aa 23-480); made in house; host or cells: HEK 293 cells
T1 sequence (Q14956 23-492): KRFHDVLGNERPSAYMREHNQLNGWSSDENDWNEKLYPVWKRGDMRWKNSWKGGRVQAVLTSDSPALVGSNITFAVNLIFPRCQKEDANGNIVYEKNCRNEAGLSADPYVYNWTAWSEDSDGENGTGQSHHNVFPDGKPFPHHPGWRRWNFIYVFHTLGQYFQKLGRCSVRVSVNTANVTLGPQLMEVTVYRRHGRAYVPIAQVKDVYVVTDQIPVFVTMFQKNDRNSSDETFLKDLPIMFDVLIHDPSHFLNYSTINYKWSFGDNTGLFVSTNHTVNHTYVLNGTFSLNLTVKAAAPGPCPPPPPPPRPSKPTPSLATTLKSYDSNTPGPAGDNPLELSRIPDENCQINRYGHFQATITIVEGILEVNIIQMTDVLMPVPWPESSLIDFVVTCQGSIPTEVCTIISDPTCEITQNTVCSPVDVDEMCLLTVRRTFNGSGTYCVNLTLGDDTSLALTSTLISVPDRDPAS
Experimental: Certain antibodies, described herein were binned in accordance with the protocol described in U.S. Patent Application Publication No. 20030157730. M×hIgG conjugated beads are prepared for coupling to primary antibody. The volume of supernatant needed is calculated using the following formula: (n+10)×50 μL (where n=total number of samples on plate). Where the concentration is known, 0.5 μg/mL is used. Bead stock is gently vortexed, then diluted in supernatant to a concentration of 2500 of each bead per well or 0.5×10^5/mL and incubated on a shaker in the dark at RT overnight, or 2 hours if at a known concentration of 0.5 μg/mL. Following aspiration, 50 μL of each bead is added to each well of filter plate, then washed once by adding 100 μL/well wash buffer and aspirating. Antigen and controls are added to filter plate 50 μL/well then covered and allowed to incubate in the dark for 1 hour on shaker. Following a wash step, a secondary unknown antibody is added at 50 μL/well using the same dilution (or concentration if known) as is used for the primary antibody. The plates are then incubated in the dark for 2 hours at RT on shaker followed by a wash step. Next, 50 μL/well biotinylated m×hIgG diluted 1:500 is added and allowed to incubate in the dark for 1 hour on shaker at RT. Following a wash step, 50 μL/well Streptavidin-PE is added at 1:1000 and allowed to incubate in the dark for 15 minutes on shaker at RT. Following a wash step, each well is resuspended in 80 μL blocking buffer and read using Luminex. […] Competitive binding by antibodies from […] supports antibody specificity for similar or adjacent epitopes. Non competitive binding supports antibody specificity for unique epitopes.
Three bins were created to further test the binding of six anti-GPNMB antibodies. Bin 1 included GPNMB antibodies (1.2.1), (1.10.1), and (2.22.1). Bin 2 included GPNMB antibodies (2.3.1) and (1.15.1), and Bin 3 included GPNMB antibody (2.10.1). The results of the binning assays are provided below in Tables 8 and 9.

[3] = test system: SK-MEL-2 melanoma xenografts; assay: Dosing interval (schedule dependency) study, SK-MEL-2 xenograft; assay type: in vivo, athymic mice
Experimental: Nota bene: Please note that, although all 5 sets of groups in this experiment (e.g., groups 5, 6, and 7 represent one set and received 32, 8, and 2 mg/kg cumulative dose, respectively) received the same cumulative doses, the first set receiving the “bolus dose” is different from the other 4 sets. The Cmax for each group in the “bolus” set was likely four-fold higher that the Cmax for the other 4 sets (see section on pharmacokinetics for dose-linearity after i.v. administration), since 4 sets of groups received 4 treatments, whereas the first set received only one “bolus” treatment (see column 7, Table 49 below).
The aggregate responses for each set of groups, where a set is defined as 3 groups of graduated dosage levels but one dosage interval (groups 5, 6, and 7 represent 1 set, all of which were treated with a dosing interval of 1 day) are shown in FIG. 7. […] However, this effect was not significant (P<0.2904).
The original design of this study was expanded to include an examination of the effects of various dosage levels. For each set, one group of animals received a cumulative dose of 8 mg/kg, which, from previous studies employing a dosing interval of 4 days, provided consistent therapeutic effects leading to long-term tumor-free animals. In addition, cumulative doses of 2 mg/kg and 32 mg/kg were employed.

Q: For “CR011: fully human monoclonal antibody that specifically binds to GPNMB; VH SEQ ID NO: 20, VL SEQ ID NO: 29”, which “effect on growth of all antigen positive hematopoietic cell lines (in words)” value [1] is on record?
A: no effect on growth

Q: And the bin ([2]; Table 8)?
A: VIII

Q: And the “binning signal against antibody 1.1” value ([2]; Table 8)?
A: 91

Q: And the “binning signal against antibody 1.11” value ([2]; Table 8)?
A: 10

Q: And the “binning signal against antibody 1.12” value ([2]; Table 8)?
A: 15

Q: What about the “binning signal against antibody 1.13” value ([2]; Table 8) of the same substance?
A: 13

Q: What about the “binning signal against antibody 1.15” value ([2]; Table 8) of the same substance?
A: 0

Q: And the “binning signal against antibody 1.2” value ([2]; Table 8)?
A: 79

Q: And the “binning signal against antibody 1.3” value ([2]; Table 8)?
A: 71

Q: And the “binning signal against antibody 1.7” value ([2]; Table 8)?
A: 21

Q: What about the “binning signal against antibody 1.8” value ([2]; Table 8) of the same substance?
A: 8

Q: And the “binning signal against antibody 1.9” value ([2]; Table 8)?
A: 12

Q: What about the “binning signal against antibody xV5” value ([2]; Table 8) of the same substance?
A: 89

Q: What about the “binning signal against column antibody 1.5” value ([2]; Table 8) of the same substance?
A: 15

Q: What about the “binning signal against antibody 1.1” value ([2]; Table 9) of the same substance?
A: 127

Q: What about the “binning signal against antibody 1.11” value ([2]; Table 9) of the same substance?
A: 19

Q: What about the “binning signal against antibody 1.12” value ([2]; Table 9) of the same substance?
A: 21

Q: What about the “binning signal against antibody 1.13” value ([2]; Table 9) of the same substance?
A: 5

Q: And the “binning signal against antibody 1.15” value ([2]; Table 9)?
A: 0

Q: What about the “binning signal against antibody 1.2” value ([2]; Table 9) of the same substance?
A: 90

Q: What about the “binning signal against antibody 1.3” value ([2]; Table 9) of the same substance?
A: 51

Q: And the “binning signal against antibody 1.7” value ([2]; Table 9)?
A: 17

Q: And the “binning signal against antibody 1.8” value ([2]; Table 9)?
A: 12

Q: And the “binning signal against antibody 1.9” value ([2]; Table 9)?
A: 19

Q: What about the “binning signal against antibody xV5” value ([2]; Table 9) of the same substance?
A: 125

Q: What about the “binning signal against column antibody 1.5” value ([2]; Table 9) of the same substance?
A: −9

Q: And the bin ([2]; Table 9, Cut-off = 90)?
A: VIII

Q: What about the bin ([2]; three bins of six anti-GPNMB antibodies) of the same substance?
A: Bin 2

Q: Which results are given for “CR011-vcMMAE: CR011 conjugated to monomethyl auristatin E through a protease cleavable valine-citrulline linker; approx. 4 drugs per antibody”?
A: complete regressors ([3]; 2 mg/kg cumulative dose): 13%; complete regressions ([3]; 8 mg/kg cumulative dose, all dosing intervals (28/30)): 93%; complete regressions ([3]; cumulative dose of 32 mg/kg, all dosing intervals (30 test animals)): 100%; schedule dependency of anti-tumor effects ([3]; dosing intervals 0, 1, 4, 8, 16 days): not schedule-dependent
